Data published in publication PMC8928829.

target: NIH-CoVnb-112; assay: BLI
Sequence (heavy, as listed by the source): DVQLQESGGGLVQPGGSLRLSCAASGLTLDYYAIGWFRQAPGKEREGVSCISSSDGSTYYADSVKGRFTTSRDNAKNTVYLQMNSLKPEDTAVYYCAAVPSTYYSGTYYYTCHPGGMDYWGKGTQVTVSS

Row | Substance | Kd [nM]
1 | SARS-CoV-2 RBD L452R (from UniProt P0DTC2) (domain or fragment) | 4.88
2 | SARS-CoV-2 RBD K417N (from UniProt P0DTC2) (domain or fragment) | 1.42
3 | SARS-CoV-2 RBD T478K (from UniProt P0DTC2) (domain or fragment) | 0.497
